Legend:
[1] = Soluble expression in Escherichia coli BL21(DE3); format: physicochemical; settings: expression in E. coli BL21(DE3)
Experimental: Variants with affinity tag were expressed in Escherichia coli BL21(DE3) using a low copy plasmid system under regulation of a T7 promoter. Proteins were produced in soluble form after induction by lactose included in the medium (autoinduction medium). BL21 (DE3) competent cells were transformed with the expression plasmid, spread onto selective agar plates (kanamycin) and incubated overnight at 37° C. Precultures were inoculated from single colony in 3 ml 2×YT medium supplemented with 50 μg/ml kanamycin and cultured for 6 hours at 37° C. at 200 rpm in a conventional orbital shaker in culture tubes. […] Cultures were transferred to an orbital shaker and incubated at 30° C. and 200 rpm. Recombinant protein expression was induced by metabolizing glucose and subsequently allowing lactose to enter the cells. Cells were grown overnight for approx. 17 hours to reach a final OD600 of about 2-4. Before the harvest, the OD600 was measured, samples adjusted to 0.6/OD600 were withdrawn, pelleted and frozen at −20° C. To collect biomass cells were centrifuged at 12000×g for 15 min at 22° C. Pellets were weighed (wet weight). Cells were stored at −20° C. before processing.
(§1) Proteins with affinity tag were purified by affinity chromatography and size exclusion. After affinity chromatography purification using Strep-Tactin Superflow high capacity cartridges (IBA Lifesciences) a size exclusion chromatography (SEC) was performed using an Äkta system and a Superdex™ 200 HiLoad 16/600 column (Cytiva). Fused variants with Aflibercept were purified via MabSelect SuRe (Cytiva) affinity chromatography followed by a size exclusion chromatography (SEC) using an Äkta system and a Superdex™ 200 HiLoad 16/600 column (Cytiva). All chromatography processing steps were carried out on AKTA systems using matrices from Cytiva. Homogenous species of all purified ligands were obtained; no aggregation was detected. Following SOS-PAGE analysis positive fractions were pooled and their protein concentrations were measured. Further analysis included SOS-PAGE, SE-HPLC and RP-HPLC. Protein concentrations were determined by absorbance measurement at 280 nm using the molar absorbent coefficient. Reversed phase chromatography (RP-HPLC) was performed using a Dionex HPLC system and a PLRP-S (5 μm, 300 Å) column (Agilent). Analytic size exclusion chromatography (SE-HPLC) was performed using a Dionex HPLC system and a Superdex200 increase 5/150 GL (Cytiva). Binding of Collagen II was evaluated by SPR measurements using a Biacore 3000 system. Purified Collagen II was obtained from Chondrex.inc and VEGF-165 was obtained from Millipore. Targets were immobilized on a CM5-Sensor via NHS/EDC chemistry (immobilization level ˜1000 RU). Binding molecules were injected at different concentration and affinity was calculated by langmuir 1:1 binding model.

[2] = target: T1, human collagen type I (h Col I) (Homo sapiens, UniProt P02452+P08123); assay: ELISA specificity vs human collagen type I; format: binding
T1 construct: purchased Sigma C5483-1MG
Experimental: High binding plates (Greiner, 781061) were immobilized with 2.5 μg/ml recombinant human collagen type II (h Col II, Chondrex, CHX-20051), rabbit collagen type II (rbCol II, prepared from rabbit eyes), porcine collagen type II (p Col II, prepared from porcine eyes), human collagen type I, (h Col I, Sigma, C5483-1MG), human collagen type V (h Col V, Abcam, ab7537), human collagen type III (h Col Ill, Abcam, ab7535) and 67B89 (domain of fibronectin, produced in E. coli) respectively over night at 4° C. ELISA-plates were washed 3 times with PBST (PBS+ 0.1% Tween) and blocked with 3% BSA/0.5% Tween/PBS 2 h at RT. After washing with PBST, dilution series of 1.1 μM to 7×10^−4 nM of dimers (CID 211999, CID 212000), dilution series of 100 nM to 7×10^−6 nM of tetramers (CID 212001 and CID 212704) and dilution series of 10 μM to 2 nM of dimer (CID 212705) were incubated on ELISA-plates 1 h at rt. Plates were washed with PBST and incubated with biotinylated anti-StrepTag-ab (Antikörper-online, ABIN1573895) with a dilution of 1:10.000 for 1 h at rt. The binding was visualized with a-rabbit-IgG-HRP (Sigma, A9169) with a dilution of 1:10.000 and as substrate TMB Plus von KEM EN TEC Diagnostic, Kat-Nr. 4395.

[3] = target: T2, hCol2 (human Type II collagen) (Homo sapiens, UniProt P02458); assay: Binding analysis by SPR (Biacore 3000) vs human type II collagen; settings: dimers or tetramers; Langmuir 1:1 model
T2 construct: purchased Chondrex
Experimental: as §1
The purified proteins were immobilized on a CM-5 sensor chip (GE Healthcare) using NHS/EDC after PDEA activation resulting in 110-140 RU with a Biacore 3000 system (GE Healthcare). The chip was equilibrated with SPR running buffer (PBS 0.05% Tween pH 7.3). Upon binding, target analyte was accumulated on the surface increasing the refractive index. This change in the refractive index was measured in real time and plotted as response or resonance units versus time. The analytes were applied to the chip in serial dilutions with a flow rate of 30 μl/min. The association was performed for 120 seconds and the dissociation for 120 seconds. After each run, the chip surface was regenerated with 30 μl regeneration buffer (10 mM glycine pH 2.0) and equilibrated with running buffer.
Binding studies were carried out by the use of the BIAcore 3000 (GE Healthcare); data evaluation was operated via the BIAevaluation 3.0 software, provided by the manufacturer, using the Langmuir 1:1 model (RI=0). Evaluated dissociation constants (KD) were standardized against the immobilized protein and indicated. Shown is the change in refractive index measured in real time and plotted as response or resonance unit [RU] versus time [sec].

pig eye sections = assay: Immunohistochemistry staining on pig eye sections; settings: formalin-fixed paraffin-embedded pig eyes; 5 μM or 500 nM protein, 45 min
Experimental: Sections of formalin-fixed paraffin-embedded pig eyes were deparaffinated with xylol and rehydrated with a descending concentration series of ethanol. For antigen retrieval slices were incubated in TE-buffer, pH 9.0 for 5 min. at 110° C. After blocking of endogenous peroxidases with peroxidase blocking solution (Novolink Polymer™ Detection System, Leica, RE7140-K) slices were incubated with 5 μM or 500 nM of CID 211999 (dimer), CID 212000 (dimer), CID 212001 (tetramer) for 45 min at rt. Subsequently binding of proteins was detected with rabbit-anti-StrepTag-antibody (Genscript, A00026) at a dilution of 1:500 and Novolink Polymer™ Detection System. Anti-Collagen Type II antibody (Abcam, #ab34712) at a dilution of 1:10 served as positive control. Tissue slices were incubated with antibodies for 30 min. Washing steps were performed with TBS pH 7.6. For visualization, AEC-staining (Dako, K3461) was used and after washing with water, nuclei were stained with Mayers Hamalum solution (Merck, 1.09249.0500). Results see FIG. 5.

T2 sequence (P02458 182-1241): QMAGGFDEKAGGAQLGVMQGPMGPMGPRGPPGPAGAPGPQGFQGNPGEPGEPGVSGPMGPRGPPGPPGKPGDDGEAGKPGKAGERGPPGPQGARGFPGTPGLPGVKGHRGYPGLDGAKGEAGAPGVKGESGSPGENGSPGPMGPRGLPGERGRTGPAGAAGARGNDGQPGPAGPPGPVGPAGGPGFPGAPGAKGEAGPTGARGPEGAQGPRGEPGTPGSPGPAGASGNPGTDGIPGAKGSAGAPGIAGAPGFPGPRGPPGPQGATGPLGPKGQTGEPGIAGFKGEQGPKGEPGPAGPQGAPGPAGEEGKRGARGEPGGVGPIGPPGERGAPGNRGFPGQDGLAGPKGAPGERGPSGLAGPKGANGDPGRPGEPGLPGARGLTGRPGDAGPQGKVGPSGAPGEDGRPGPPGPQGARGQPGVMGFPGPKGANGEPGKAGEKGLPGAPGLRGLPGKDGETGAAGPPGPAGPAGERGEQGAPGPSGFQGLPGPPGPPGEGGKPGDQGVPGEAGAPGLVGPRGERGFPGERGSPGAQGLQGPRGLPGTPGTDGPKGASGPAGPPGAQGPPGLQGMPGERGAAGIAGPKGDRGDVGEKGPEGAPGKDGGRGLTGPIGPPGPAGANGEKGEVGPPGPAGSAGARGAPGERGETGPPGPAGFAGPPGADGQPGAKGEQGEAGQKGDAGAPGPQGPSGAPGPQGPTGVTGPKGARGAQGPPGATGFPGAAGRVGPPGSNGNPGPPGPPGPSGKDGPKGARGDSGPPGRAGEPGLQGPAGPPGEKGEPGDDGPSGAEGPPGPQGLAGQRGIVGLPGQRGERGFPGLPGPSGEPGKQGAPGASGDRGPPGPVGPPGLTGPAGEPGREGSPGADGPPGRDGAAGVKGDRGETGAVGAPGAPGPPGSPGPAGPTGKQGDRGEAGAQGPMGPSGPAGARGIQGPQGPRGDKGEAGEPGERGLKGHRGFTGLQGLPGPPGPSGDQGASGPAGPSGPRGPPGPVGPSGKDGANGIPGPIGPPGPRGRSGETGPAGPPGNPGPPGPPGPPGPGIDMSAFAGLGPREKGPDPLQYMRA
T1 sequence (P02452 162-1218 limits assumed): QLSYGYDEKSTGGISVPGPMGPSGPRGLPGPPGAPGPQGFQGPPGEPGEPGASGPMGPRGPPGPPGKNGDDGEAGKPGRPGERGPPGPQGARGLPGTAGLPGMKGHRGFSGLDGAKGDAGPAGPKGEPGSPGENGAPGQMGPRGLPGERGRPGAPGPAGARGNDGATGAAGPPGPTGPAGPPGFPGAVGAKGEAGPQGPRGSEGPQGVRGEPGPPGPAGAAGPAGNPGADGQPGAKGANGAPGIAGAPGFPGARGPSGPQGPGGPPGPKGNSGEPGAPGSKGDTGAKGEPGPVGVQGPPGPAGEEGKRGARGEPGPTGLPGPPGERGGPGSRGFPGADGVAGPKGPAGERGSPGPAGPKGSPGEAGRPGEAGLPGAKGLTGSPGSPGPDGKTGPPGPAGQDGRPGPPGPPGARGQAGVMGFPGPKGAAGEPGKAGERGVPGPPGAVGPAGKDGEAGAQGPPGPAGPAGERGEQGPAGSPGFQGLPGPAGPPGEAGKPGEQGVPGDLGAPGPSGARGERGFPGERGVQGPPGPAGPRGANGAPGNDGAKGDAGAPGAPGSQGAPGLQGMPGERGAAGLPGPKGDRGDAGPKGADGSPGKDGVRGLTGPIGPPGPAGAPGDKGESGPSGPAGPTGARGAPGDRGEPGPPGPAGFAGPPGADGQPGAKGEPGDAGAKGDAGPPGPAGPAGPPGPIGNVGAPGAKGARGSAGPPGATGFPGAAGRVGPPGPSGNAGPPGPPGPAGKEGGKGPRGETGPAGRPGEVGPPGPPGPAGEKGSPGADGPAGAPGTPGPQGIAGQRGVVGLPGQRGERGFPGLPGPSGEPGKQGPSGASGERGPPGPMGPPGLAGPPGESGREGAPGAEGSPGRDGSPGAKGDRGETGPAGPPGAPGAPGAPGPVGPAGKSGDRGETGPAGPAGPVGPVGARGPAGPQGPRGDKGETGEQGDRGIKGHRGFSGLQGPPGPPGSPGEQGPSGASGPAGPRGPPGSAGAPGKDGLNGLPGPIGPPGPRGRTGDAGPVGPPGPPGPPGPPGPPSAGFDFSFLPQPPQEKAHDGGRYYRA
T1 sequence (P08123 80-1119 limits assumed): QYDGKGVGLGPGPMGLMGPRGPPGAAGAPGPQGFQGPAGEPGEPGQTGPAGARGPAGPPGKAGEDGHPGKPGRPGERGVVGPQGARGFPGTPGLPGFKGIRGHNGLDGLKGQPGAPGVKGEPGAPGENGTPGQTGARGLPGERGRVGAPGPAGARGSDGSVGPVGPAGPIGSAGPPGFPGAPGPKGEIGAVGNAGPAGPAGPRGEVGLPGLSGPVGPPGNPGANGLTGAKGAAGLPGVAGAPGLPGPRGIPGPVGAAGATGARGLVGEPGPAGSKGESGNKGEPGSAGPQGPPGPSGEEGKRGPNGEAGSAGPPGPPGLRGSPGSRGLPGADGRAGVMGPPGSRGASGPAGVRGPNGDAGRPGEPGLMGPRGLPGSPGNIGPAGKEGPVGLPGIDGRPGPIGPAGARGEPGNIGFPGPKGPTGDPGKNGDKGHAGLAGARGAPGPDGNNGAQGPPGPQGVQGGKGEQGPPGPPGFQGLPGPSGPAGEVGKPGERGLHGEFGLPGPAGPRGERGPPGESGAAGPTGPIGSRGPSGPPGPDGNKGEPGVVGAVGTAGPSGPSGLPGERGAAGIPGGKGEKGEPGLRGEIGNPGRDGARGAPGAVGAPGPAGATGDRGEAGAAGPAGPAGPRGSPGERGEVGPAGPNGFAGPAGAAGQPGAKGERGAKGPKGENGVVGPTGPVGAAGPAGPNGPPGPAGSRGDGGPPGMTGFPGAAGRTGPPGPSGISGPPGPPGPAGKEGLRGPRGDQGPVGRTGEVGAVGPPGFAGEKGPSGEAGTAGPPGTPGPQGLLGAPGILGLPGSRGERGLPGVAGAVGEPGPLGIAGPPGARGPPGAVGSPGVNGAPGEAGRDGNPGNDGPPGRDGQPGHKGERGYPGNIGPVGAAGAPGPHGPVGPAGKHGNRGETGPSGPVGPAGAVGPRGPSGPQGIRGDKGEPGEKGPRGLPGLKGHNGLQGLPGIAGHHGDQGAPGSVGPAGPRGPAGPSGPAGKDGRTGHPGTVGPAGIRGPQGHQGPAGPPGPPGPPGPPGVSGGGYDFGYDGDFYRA

binding to type I collagen (ELISA) [2]: No unspecific binding
Affinity [SPR] vs hCol2 [3]: 180 nM
B1: CID 212000: dimer of SEQ ID NO: 2 (dimer with linker between the monomers) (protein)
chain: IAAKFDEAQSAADSEILHLPNLTEQQRHYFRRWLSDDPSVSTHILTQAQHLNDDQAPKGGGGSGGGGSGGGGSGGGGSIAAKFDEAQSAADSEILHLPNLTEQQRHYFRRWLSDDPSVSTHILTQAQHLNDDQAPKSAWSHPQFEK
modifications: Col2 binding protein (dimer of 211261) (CID212000)
Solubility Soluble expression [1]: 100%
IHC staining of pig eye sections (pig eye sections): staining of retina, inner limiting membrane (arrow) and vitreous body of pig eye
